From the Immune Epitope Database (IEDB)

Key:
[1] = biological target: HLA-B*15:03; test: IEDB peptide-MHC binding, purified MHC/competitive/radioactivity; filed as Kd, often an IC50 or EC50 that approximates it; ≥ and ≤ were set here for values at or beyond the usual limits of such assays
[2] = biological target: HLA-B*58:01; test: as above
[3] = biological target: HLA-A*24:02; test: IEDB peptide-MHC binding, purified MHC/competitive/fluorescence; ≥ and ≤ were set here for values at or beyond the usual limits of such assays
[4] = biological target: HLA-B*15:01; test: as above
[5] = biological target: HLA-A*11:01; test: IEDB peptide-MHC binding, purified MHC/direct/fluorescence; filed as Kd, often an IC50 or EC50 that approximates it; ≥ and ≤ were set here for values at or beyond the usual limits of such assays
[6] = biological target: HLA-A*03:01; test: as above
[7] = biological target: HLA-A*31:01; test: IEDB peptide-MHC binding, purified MHC/competitive/fluorescence; filed as Kd, often an IC50 or EC50 that approximates it; ≥ and ≤ were set here for values at or beyond the usual limits of such assays
[8] = biological target: HLA-B*35:01; test: IEDB peptide-MHC binding, purified MHC/competitive/radioactivity; filed as Kd, often an IC50 or EC50 that approximates it; ≥ and ≤ were set here for values at or beyond the usual limits of such assays; settings: source organism: Dengue virus 1 Singapore/S275/1990
[9] = biological target: HLA-B*53:01; test: as above
[10] = biological target: HLA-A*32:01; test: as above
[11] = biological target: HLA-B*08:01; test: as above
[12] = biological target: HLA-B*15:01; test: as above
[13] = biological target: HLA-A*30:01; test: as above
[14] = biological target: HLA-A*11:01; test: IEDB peptide-MHC binding, purified MHC/competitive/fluorescence; ≥ and ≤ were set here for values at or beyond the usual limits of such assays; settings: source organism: Zaire ebolavirus
[15] = biological target: HLA-A*02:01; test: as above
[16] = biological target: HLA-A*11:01; test: IEDB peptide-MHC binding, purified MHC/competitive/radioactivity; filed as Kd, often an IC50 or EC50 that approximates it; ≥ and ≤ were set here for values at or beyond the usual limits of such assays; settings: source organism: Dengue virus 1 Singapore/S275/1990
[17] = biological target: HLA-A*03:01; test: as above; settings: source organism: Dengue virus 1 Singapore/S275/1990
[18] = biological target: HLA-A*02:12; test: IEDB peptide-MHC binding, purified MHC/direct/fluorescence; filed as Kd, often an IC50 or EC50 that approximates it; ≥ and ≤ were set here for values at or beyond the usual limits of such assays
[19] = biological target: HLA-A*02:19; test: as above
[20] = biological target: HLA-A*02:03; test: as above
[21] = biological target: HLA-A*02:11; test: as above
[22] = biological target: HLA-A*02:16; test: as above
[23] = biological target: HLA-A*26:01; test: as above
[24] = biological target: HLA-B*18:01; test: IEDB peptide-MHC binding, purified MHC/competitive/fluorescence; filed as Kd, often an IC50 or EC50 that approximates it; ≥ and ≤ were set here for values at or beyond the usual limits of such assays
[25] = biological target: HLA-A*69:01; test: as above
[26] = biological target: HLA-B*46:01; test: as above
[27] = biological target: HLA-B*57:01; test: as above
[28] = biological target: HLA-A*02:01; test: as above
[29] = biological target: HLA-B*15:17; test: as above; settings: source organism: Araucaria virus
[30] = biological target: HLA-B*39:01; test: as above
[31] = biological target: HLA-B*51:01; test: as above
[32] = biological target: HLA-B*27:03; test: as above
[33] = biological target: HLA-A*68:02; test: IEDB peptide-MHC binding, purified MHC/direct/fluorescence; filed as Kd, often an IC50 or EC50 that approximates it; ≥ and ≤ were set here for values at or beyond the usual limits of such assays; settings: source organism: Orthohantavirus andesense
[34] = source organism: Vaccinia virus Copenhagen
[35] = source organism: Sudan ebolavirus
[36] = source organism: Escherichia coli O157:H7
[37] = source organism: West Nile virus
[38] = source organism: Vaccinia virus WR
[39] = source organism: Dengue virus 1 Singapore/S275/1990
[40] = source organism: Zaire ebolavirus
[41] = source organism: Vaccinia virus
[42] = source organism: Campylobacter jejuni
[43] = source organism: Influenza A virus (A/swine/Korea/S190/2004(H9N2))
[44] = source organism: Araucaria virus
[45] = source organism: Dengue virus 1 Brazil/97-11/1997
[46] = source organism: Orthohantavirus andesense
[47] = source organism: Mammarenavirus lassaense

With RQNRSQYLF the Kd [1, 34] was 0.000137 µM.
IASLPTYLSS gave a Kd ([2]; source organism: Dengue virus 4 Philippines/H241/1956) of no less than 36.3 µM.
Sequence ILAKPKETF has an IC50 [3, 35] of 0.5 µM and an IC50 [4, 35] of no less than 102 µM.
SVAPGTDFR gave a Kd [5, 36] of 0.0018 µM, a Kd [6, 36] of 0.506 µM and a Kd ([7]; source organism: Escherichia coli O157:H7 str. EDL933) of 0.007 µM.
GLYKSAPRR showed a Kd [5, 37] of no less than 20 µM and a Kd [7, 37] of 0.197 µM.
For IQRTYSSSI, the Kd [1, 38] was 0.00083 µM.
Work on MASSVLLWM yielded a Kd [8] of 0.0566 µM, a Kd [2, 39] of 0.0003 µM and a Kd [9, 39] of 0.00061 µM.
Work on IHFMREYWF yielded a Kd [10, 34] of 12.4 µM, a Kd [11, 34] of 8.05 µM and a Kd [12, 34] of 6.91 µM. It also gave a Kd [13, 34] of 0.0449 µM and a Kd [1, 34] of 0.222 µM.
Work on IQTLNGKHF yielded a Kd [1, 38] of 0.0114 µM.
FKAMWKYPF gave a Kd [1, 38] of 0.000109 µM.
AVAKYFSPL showed a Kd [10, 38] of 0.283 µM, a Kd [11, 38] of 0.189 µM and a Kd [12, 38] of 0.016 µM. For the same sequence, the Kd [13, 38] was 8.98 µM and the Kd [1, 38] was 0.235 µM.
LSFASLFLP showed an IC50 [14] of no less than 179 µM, an IC50 [3, 40] of 11.1 µM and an IC50 [15, 40] of 2.67 µM. For the same sequence, the IC50 [4, 40] was no less than 97.8 µM.
With KEFLRYLLF the IC50 [3, 41] was 0.381 µM and the IC50 [4, 41] was no less than 277 µM.
For IMLEYPHFK, the Kd [5, 42] was 0.0018 µM, the Kd [6, 42] was 0.0229 µM and the Kd ([7]; source organism: Campylobacter jejuni subsp. jejuni NCTC 11168 = ATCC 700819) was 0.0136 µM.
Work on IKYACKQIL yielded a Kd [10, 38] of 10.7 µM, a Kd [11, 38] of 8.67 µM and a Kd [12, 38] of 6.87 µM. For the same sequence, the Kd [13, 38] was 2.11 µM and the Kd [1, 38] was 0.252 µM.
Sequence TTHSWIPKR has a Kd [5, 43] of 0.132 µM, a Kd [6, 43] of 2.83 µM and a Kd ([7]; source organism: Influenza A virus (A/Fort Monmouth/1/1947-mouse adapted(H1N1))) of 0.0023 µM.
Sequence RFNVPGTWR has a Kd [5, 36] of no less than 20 µM, a Kd [6, 36] of 1.92 µM and a Kd ([7]; source organism: Escherichia coli K-12) of 0.00127 µM.
With SMNTIKQSF the Kd [10, 38] was 0.293 µM, the Kd [11, 38] was 0.449 µM and the Kd [1, 38] was 0.0165 µM.
With ASSMVNGVVK the Kd [16] was 0.0304 µM, the Kd [2, 39] was 2.79 µM and the Kd [17] was 0.325 µM.
ITLTNVVNI showed a Kd [10, 38] of 0.0771 µM, a Kd [11, 38] of 4.49 µM and a Kd [12, 38] of 0.0116 µM. It also gave a Kd [13, 38] of 0.0346 µM and a Kd [1, 38] of 0.0218 µM.
Sequence GVPELGAFF has a Kd [18, 44] of no less than 20 µM, a Kd [19, 44] of no less than 20 µM and a Kd [20, 44] of no less than 20 µM. For the same sequence, the Kd [6, 44] was no less than 20 µM, the Kd [21, 44] was no less than 20 µM and the Kd [22, 44] was no less than 20 µM. It also gave a Kd ([23]; source organism: Itapua hantavirus) of 0.207 µM, a Kd [24, 44] of no less than 20 µM and a Kd [25, 44] of no less than 20 µM. The Kd [26, 44] was no less than 20 µM, the Kd [27, 44] was no less than 20 µM and the Kd [28, 44] was no less than 20 µM. For the same sequence, the Kd [29] was no less than 20 µM, the Kd [30, 44] was no less than 20 µM and the Kd [31, 44] was no less than 20 µM. The Kd [32, 44] was no less than 20 µM.
FTRCAVIPF was tested, and the Kd [1, 38] was 0.0054 µM.
ATREGKHGK showed a Kd [5, 36] of 0.254 µM, a Kd [6, 36] of 0.301 µM and a Kd ([7]; source organism: Shewanella baltica OS155) of 0.0813 µM.
Sequence KLTSTETSF has a Kd [1, 38] of 0.0254 µM.
QMTSTFIML showed an IC50 [3, 34] of 0.224 µM and an IC50 [4, 34] of 30.2 µM.
For GTSGTEKEF, the IC50 [3, 41] was no less than 205 µM and the IC50 [4, 41] was no less than 401 µM.
KCIKKGVEY was tested, and the IC50 [4, 41] was no less than 91.2 µM.
For LLIMGQLTW, the Kd [2, 45] was 0.0111 µM and the Kd [9, 45] was 0.342 µM.
With VGLITCKAF the IC50 [3, 38] was 7.71 µM, the IC50 [15, 38] was no less than 1310 µM and the IC50 [4, 38] was 57.3 µM.
Sequence HVKSTLNNA has a Kd [10, 38] of no less than 41.7 µM, a Kd [11, 38] of 1.53 µM and a Kd [12, 38] of 0.366 µM. The Kd [13, 38] was 0.00115 µM and the Kd [1, 38] was 0.376 µM.
Work on AVEDFLAFF yielded a Kd [18, 46] of no less than 20 µM, a Kd [19, 46] of no less than 20 µM and a Kd [20, 46] of no less than 20 µM. It also gave a Kd [6, 46] of no less than 20 µM, a Kd [21, 46] of no less than 20 µM and a Kd [33] of no less than 20 µM. The Kd [22, 46] was no less than 20 µM, the Kd [23, 46] was 1.39 µM and the Kd [24, 46] was no less than 20 µM. The Kd [25, 46] was no less than 20 µM, the Kd [26, 46] was no less than 20 µM and the Kd [27, 46] was no less than 20 µM. The Kd [28, 46] was no less than 20 µM, the Kd [30, 46] was no less than 20 µM and the Kd [31, 46] was no less than 20 µM. It also gave a Kd [32, 46] of no less than 20 µM.
In the case of KLIDIALSK, the Kd [5, 47] is reported as 0.0012 µM, the Kd [6, 47] is reported as 0.639 µM and the Kd ([7]; source organism: Lassa virus Josiah) is reported as 0.142 µM.
Work on KTFVELMRR yielded a Kd [5, 39] of 0.0162 µM and a Kd ([7]; source organism: dengue virus type 1) of no more than 0.001 µM.
With LPTNEFISF the Kd [1, 38] was 0.0337 µM.
